Experiment: soluble on expression in E. coli; label from the status in PepcDB or PDB records

Sequence	soluble on expression in E. coli
MKEVKRPVVSVVVPVYNTEPFLAECLHSLEKQTLTDIEIILVNDGSTDNSGRLLREYAGKDARFVYVEQENQGLSAARNTGMEHASGHYLAFLDSDDWLAENALQVLCAIAAKTRTDIVSGNTLAVHADGQVQSWERRGRELFATGTVVSGSTYFSRVMDCRCYVPMVYNYLYRRDFIEQNGFRFEPGLVHEDELWTPQVLTTAQKITVADIDFYYYRQREGSIMTATAAGRRIASIQLIIEKLLEYSRKHLFEKKYREAKEALYVRLLQIYSTACTLHPDGTYTTLYDRAGEMLRVCEELRRQESLGRWYSEEILNRMKLYYDRLQTMEG	not soluble
MKEVLKLADEKFVMSFSGGKDSILALNRMLKKGYKPVALLTTISEEHGKSWTHNLEYNMLKQVSSNIGLPLLVAECGVEGYEESFERALIKAKNMGATICAYGDIDIESHRKWDTDRCEAVGMKVDLPLWQESREDLVYEFIDSGFCSVVTKVNLKHLGEEFLGKKLTRELVEKIKNAGADPCGEHGEYHTFVVDGPIFKKPVEYEVKGTLIKDGYGYLEIK	not soluble
MKFAVIVFPGSNCDVDMFHAIKDELGEEVDYVWHDTENLDEYDAILLPGGFSYGDYLRCGAISRFANAMKAVQKAAEQGKPILGVCNGFQILVESGLLPGALIRNENLKFMCRTVQLRVENNETMFTSQYEKDEIINIPIAHGEGNYYCDEATLKQLEENNQIAFRYVENPNGSVSDIAGIVNEKGNVLGMMPHPERAVDELLGGAEGLKVFQSILKQWRETYVVNA	not soluble
MKFETLDFNDEKDIKNFKTDCGDLQDCFTALPCRPGSNNQLDKRLRSIEWVCKAIVFLTEDFSNCFDKLHEKNAECVQNWNPLPNEIYLEDDKMKVEKMKENACDTYFGKDDCVKKEIIERCGQEEWNTFRKVPN	not soluble
MKFGLFFLNFMNSKRSSDQVIEEMLDTAHYVDQLKFDTLAVYENHFSNNGVVGAPLTVAGFLLGMTKNAKVASLNHVITTHHPVRVAEEACLLDQMSEGRFAFGFSDCEKSADMRFFNRPTDSQFQLFSECHKIINDAFTTGYCHPNNDFYSFPKISVNPHAFTEGGPAQFVNATSKEVVEWAAKLGLPLVFRWDDSNAQRKEYAGLYHEVAQAHGVDVSQVRHKLTLLVNQNVDGEAARAEARVYLEEFVRESYSNTDFEQKMGELLSENAIGTYEESTQAARVAIECCGAADLLMSFESMEDKAQQRAVIDVVNANIVKYHSLEHHHHHH	soluble
MKFKQDFFTQLPEFYSQVYPQGISNPHWLAWSDDAAALIGLHQPTDELLQGLSGNAAVEGASYYAQVYSGHQFGGYTPRLGDGRSIILGEAIGPNGAWDVALKGGGPTPYSRHGDGRAVMRSAVREFLVSEALHHLGVPTTRALAVIGSDMPVWRESQETAAITVRLARSHIRFGHFEFFSHSERGQADKLTQLLNFTLKQHYPHLSCDPAGYKAWFLQVVQDSAKMIAHWQAIGFAHGVMNTDNMSILGDSFDFGPFAFLDTFQEDFICNHSDPDGRYAFGQQPGIGLWNLQRLAQALTPVIASDDLIAALNQYQHALVQHYLALMRAKLGLVQQADSSAEQDQQDLELIGRFTVLMEKNQLDYSHTWRRFGQLDPSSLHSSLRDDFIDLNEFDAWYQVYQARLGKVTDVEAWQQQCNRVNPKYILRNYLAQEAIIAVDEGNLAQLQRLHQVLRQPFTEQIEHEELAKRPPDWGQGLIMSCSS	soluble
MKFLELNKKRHATKHFTDKLVDPKDVRTAIEIATLAPSAHNSQPWKFVVVREKNAELAKLAYGSNFEQVSSAPVTIALFTDTDLAKRARKIARVGGANNFSEEQLQYFMKNLPAEFARYSEQQVSDYLALNAGLVAMNLVLALTDQGIGSNIILGFDKSKVNEVLEIEDRFRPELLITVGYTDEKLEPSYRLPVDEIIEKR	soluble
MKFLFYLSADNLEIARKEVLVLAERYGWVEDYQFEERLLLLDYAGEKFFERLAYTNEVTKIYDICSVSELEQVFSEIPVYDRLCCVRVKGGKGKTALERKLGALLWKRGAKVSVSNPEIVYKVYIQDDKCYVGLLEFERDTRQFFLRRPDRRPFLMPSAIKPKLARALVNLTGVLEGETLLDPMCGTGSFLIEAGLMGINPIGIDFIEKIVRGCRVNLEYYGIEGSVLLGDAKNLPLRDESVRGIATDYPYLRSTKAAGTLDELYSKTSEEFERVLKKGGRAAIVTNIDVESFFSNFEIEMKTEERVHGSLTRRIYLLRR	not soluble
MKFTVGNGQNQHKGVNDGFSYEIWLDNTGGNGSMTLGSGATFKAEWNAAVNRGNFLARRGLDFGSQKKATDYDYIGLDYAATYKQTASASGNSRLCVYGWFQNRGLNGVPLVEYYIIEDWVDWVPDAQGKMVTIDGAQYKIFQMDHTGPTINGGSETFKQYFSVRQQKRTSGHITVSDHFKEWAKQGWGIGNLYEVALNAEGWQSSGVADVTLLDVYTTPKGSSPALEHHHHHH	soluble
MKGGLLVDDEFIHGEERSLTVRKTSLFFAGDGFTVYDCKGSLVFRVDSYGGPNTRDTDEVVLMDAHGRCLLTLRRKRPSLRRRWEGYLGERSDGQKPIFGVRRSSIIGRNSVTVEVYGDYQCSEYLIEGSFGARNCTVVEAETRRKVAEIRRKVDASTNVMLGKDVFSLNVKPGFDGAFAMGLVLVLDQIYGDDLLEVGEEQVHPSAEDL	not soluble
MKGRIELGDVTPHNIKQLKRLNQVIFPVSYNDKFYKDVLEVGELAKLAYFNDIAVGAVCCRVDHSQNQKRLYIMTLGCLAPYRRLGIGTKMLNHVLNICGWMDGWMDGWMDGRASEIVEIPCLFLGYQFPKQSKSKLRSLVLSTFTLMDKLQRALAKRRGHK	not soluble
MKHKLIDDELKYLDERSRDIFRHIVEAYLNDGGPVGSRNLSRLLRQTLSPATIRNVMSDLEHLGLIYAPHVSAGRMPTQSGLRFFVDAFMEAGDLPNEERENIEAQVKEAGHAQSVEHFLVQASQVLSDLSRGAGLVLATKHEGTLKHIEFVRLDGEHALAVLVTQQGGVENRIVHLPEGVTHAQLTEATNFLNAHIQGLTLSEAKEEIARLCSETRAALDHLSHHLVETGLALWGGEGADHKIRLIVRGRSNLLEDVKAEEDLKRLRHLFDDLETRESMAQLLDLTDEGSGVRIFIGSENKLFSLSGSSLVVAPYRDSQQKVIGALGVIGPTRLNYARIVPMVDYTAQLVSQLLR	not soluble
MKHSHLYELQPDPYDFTQRKTCRVCLFKDVKNAAELSQQLKEGKIDAALIRAELVLEPFVLLAAANRAVHQSAHNRMSCRSLAAELVYSLSPSRNITDSLVTFGIAEHSTAIIAAIFDDDSGKAMKKLAKAIKGTPVPLMEGLPKFANVNMIKKVYQVGNPAFVEEGLSDHIVSRMVSKDFVS	not soluble
MKHSNKPYDSFQDELEDYIKVQKARGLEPKTCFRRMRGEYLESCGYREEFDSRPRYRMFDQRLPSGTNHSYPRSCSSSQTEDRVPQWLPAHDKIRLNSLSYCQFTRDGFSEKPVPLNLSQQEYNCGSYSVESVVHKRLCSEHSTIDPQVSHRQMHQKRKKHVEEGREKQEERPKHERKRSSEEMDLNKHRSIQRKKTKAETETVQDGTEKLKNRKEKKTRDVSSKKEDRKRRKEKKEQGEERTEEEMLWDQSILGF	not soluble
MKHSVNAMAGGHGAARYNSTDLPKLPAPQPIKTLKHFLDFAQALQSKKEFQETKQIVNDFVVKDLPKLQELLQKRADALPNWLTPWWLNIAYLAARTPLPVVTSPGVMFPKFDYNTEEGQLEYAAKISQAAVHFYLRAKNNQLKPDMAGKSPLDMSQYQFLFGTTRVPKVGVDEIRYGCDYKEKLQHILVIRNGHLFRVQVLDSNEQPLSIFAITQQLAKVVSESQTPNPHPVGIVSSDSRDKWANVYSSLKKDNNNAKSLEAVEKSLFVVCLDKASEPPVGYTEKDEQSRQALHGGGSKVNSSNRWFDKTIQFVIGTNGYTGMTYEHTPAEGPPVGALMDFICDQFDANTFITEGTPSNSPVQRLDISTDEEINKRIAKSSKNMDSIAEDLDIVAFTFKPYGKNFPKSSKISPDSFIQMAYQLAFYRIHSSLPPTYETATLRKFTEGRTENIRSPNTAAASFVKKMVSKPPTPVSEIYDALVHATNSHKKYTMDCMDAAGMDRHLLAWKLIATENNLPTPEIFGSNIYQQLNHFQVSTSQVPTRHFIQMCFGPSALDCYGICYNPQETELHFMISTFKSYGSTSSKKFAKELQKALIDMKSVINKATKEMSKL	not soluble
MKIAIAGAGAMGSRLGIMLHQGGNDVTLIDQWPAHIEAIRKNGLIADFNGEEVVANLPIFSPEEIDHQNEQVDLIIALTKAQQLDAMFKAIQPMITEKTYVLCLLNGLGHEDVLEKYVPKENILVGITMWTAGLEGPGRVKLLGDGEIELENIDPSGKKFALEVVDVFQKAGLNPSYSSNVRYSIWRKACVNGTLNGLCTILDCNIAEFGALPVSESLVKTLISEFAAVAEKEAIYLDQAEVYTHIVQTYDPNGIGLHYPSMYQDLIKNHRLTEIDYINGAVWRKGQKYNVATPFCAMLTQLVHGKEELLGAK	soluble
MKIALIQQKFHLNKEQTIKKTCEFIEEASKQGAELVCLGELHQSEYFCQSENVDFFDYANDYEKDVKFWANIARKNQIVLIASLFEKRSAGLYHNTAVVFEKDGSIAGKYRKMHIPDDPCFYEKFYFTPGDLGFEPINTSLGKLGVLICWDQWYPEAARIMALKGAEILIYPTAIGWFDKDKDEEKQRQLNAWLGVQKGHAIANGLYVVAINRVGFEKDVSGVEEGIRFWGNSFVFGPQGEELCLLDSQNECVKIIEIDKKRSENVRRWWPFLRDRRIEYFTDLTKRFID	soluble
MKIAVAGSGYVGLSLGVLLSLQNEVTIVDILPSKVDKINNGLSPIQDEYIEYYLKSKQLSIKATLDSKAAYKEAELVIIATPTNYNSRINYFDTQHVETVIKEVLSVNSHATLIIKSTIPIGFITEMRQKFQTDRIIFSPEFLRESKALYDNLYPSRIIVSCEENDSPKVKADAEKFALLLKSAAKKNNVPVLIMGASEAEAVKLFANTYLALRVAYFNELDTYAESRKLNSHMIIQGISYDDRIGMHYNNPSFGYGGYCLPKDTKQLLANYNNIPQTLIEAIVSSNNVRKSYIAKQIINVLKEQESPVKVVGVYRLIMKSNSDNFRESAIKDVIDILKSKDIKIIIYEPMLNKLESEDQSVLVNDLENFKKQANIIVTNRYDNELQDVKNKVYSRDIFGRD	soluble
MKIGDVEVRDDVFNVKVKKHVLWEVVKWQLAKRRQGTHSTKTRGEVAYSGRKILPQKGTGNARHGERGVNIFVGGGVAHGPKPRDYEYPLPKRVRKLGLKMALSDKARNNAIIFVDNIDLGKKPKTKKAIEFLKNLGVEKEKVLVVIPEKADVLYKSFRNLPNVRVLLPEGLNVYDVLWANKLVIQKDCLDRIYKKVEA	soluble
MKIGIDAGGTLIKIVQEHDNRRYYRTELTTNIQKVIDWLNNEEIETLKLTGGNAGVIADQIHHSPEIFVEFDASSKGLEILLDEQGHQIEHYIFANVGTGTSFHYFDGKDQQRVGGVGTGGGMIQGLGYLLSNITDYKELTNLAQNGDRDAIDLKVKHIYKDTEPPIPGDLTAANFGNVLHHLDNQFTSANKLASAIGVVGEVITTMAITLAREYKTNHVVYIGSSFNNNQLLREVVENYTVLRGFKPYYIENGAFSGALGALYLLEHHHHHH	soluble
MKIGVDAGGTLIKIVQEKNGERTYSTRLTTEIEEVIQWLNQQDCNNINLTGGQAAMINEQLNCESRVFVEFDAAAKGLEILLEEQGHFLDDYIFTNVGTGTSLHFSNGKAQKRVGGIGTGGGMIQGLGYLLTGISNYKQLTDTAQNGNRDIIDLKVKHIYKDSEPPISGDLTAANFGNVLHHLDESFTDADKLASVIAVVGEVITTMSITVAREHNTKNVAYIGSSFHNNDLLKDVVKDYTVLRGCEPYYIEHGAFSGALGSIHLLEHHHHHH	not soluble
